The values below come from patent US6420338B1, “Inhibition of the Src kinase family pathway as a method of treating HBV infection and hepatocellular carcinoma” (New York University Medical Center, priority 1997, dated 2002).

The subject of series [1] is AP-1. Briefly: AP-1 dependent luciferase reporter in Chang cells expressing HBx. Format: cell-based. As to conditions: AP-1 luciferase reporter. As to the method:
FIGS. 3A and 3B. Transcriptional activation of AP-1 by HBx involves activation of Src kinases. Chang cells transfected with 8 μg plasmids pCMV-X or pCMV-Xo, with or without cotransfection of pCsk for 18 h, then serum starved for 18 h. (FIG. 3A) Cell extracts were prepared for AP-1 EMSA as described (Benn et al., 1996, supra) using a ^32P-labeled dsDNA oligonucleotide probe containing one AP-1 binding site. Reactions were carried out using 3 μg of nuclear extract, labeled oligonuleotide and 1 μg of poly(dI-dC) for 30 min at 23° C. Protein-DNA complexes were resolved by electrophoresis on 4% polyacrylamide gels and visualized by PhosphorImage analysis. As a positive control for AP-1 stimulation, cells were treated with 20 μM TPA for 30 min. (FIG. 3B) Cells were transfected as above but contained in addition 3 μg of plasmid pAP-1LUC, which encodes the luciferase reporter under the control of four AP-1 binding sites and a minimal TATA box promoter. Serum starved cells were harvested 18 h after transfection and the level of expression of the luciferase reporter assayed. Results are the average of three independent experiments.
Here it is shown that HBx activation of AP-1 DNA binding activity and AP-1 directed transcription, both involve an essential requirement for HBx activation of Src tyrosine kinases. […]
For orientation: In a reporter assay the amount or activity of a reporter protein is the signal.

The test system of series [2] is MAP kinase (ERK2). Briefly: MAP kinase (ERK2) MBP kinase assay in Chang cells transfected with wtWHV. In kind it is cell-based. Conditions: Chang cells co-transfected with wtWHV; serum-starved. As for the experimental part:
FIG. 6. Woodchuck Hepatitis B Virus (WHV) HBx protein (WHx) activates a Src-Ras signaling cascade during WHV replication in cultured cells. […] Eighteen hours post-transfection, cells were serum-starved in 0.5% CS for 20 hours, MAP kinase (ERK-2) was immunoprecipitated from equal amounts of cell lysates and pellets were subjected to an in vitro MBP kinase assay.
To assay for MAP kinase activity, cells were lysed in freshly prepared lysis buffer (10 mM Tris HCl pH 7.5, 1% Triton X-100, 0.5% NP-40, 1 mM EDTA, 1 mM EGTA, 1 mM Na3VO4, 50 mM NaF, 1 mM PMSF, 40 mM PPi, 10 μg/ml aprotinin, and 10 μg/ml leupeptin) and MAP kinase was immunoprecipitated using 1 μg/ml anti-ERK2 antibodies from equal amounts of protein. After 4 washes with lysis buffer, and 2 with kinase buffer (20 mM Hepes pH 7.4, 10 mM MgCl2), the immunoprecipitates were incubated with kinase buffer including 0.5 mg/ml myelin basic protein (MBP, Sigma), 10 mM ATP and 5 μCi [γ-^32P]ATP for 30 minutes at 30° C. […]
To determine whether WHx also requires activation of Src family kinases for stimulation of Ras signaling during ongoing viral replication, Chang cells were co-transfected with plasmids synthesizing wtWHV and dominant-negative Ras (RasDN), dominant-negative Src (SrcK^−), or Csk proteins, and activation of MAP kinase was measured. […]

Series [3] relates to CMV promoter. The series can be described thus: CMV-βgal reporter control (β-galactosidase activity). In kind it is cell-based. As to conditions: co-expression with CMV-βgal. From the text:
To assess whether HBx activation of a Src signaling cascade plays an essential role in transcriptional upregulation of the viral mRNAs, Chang cells were co-transfected with wtWHV and either RasDN or Csk plasmids, and the RNA visualized by Northern analysis (FIG. 7, lanes 2 and 3). […] To ensure that the decrease in synthesis of WHV RNA by Csk was not the unforseen consequence of Csk inhibition of the CMV promoter (which drives synthesis of the WHV pregenomic RNA), control experiments assessing the effect of Csk on a CMV-βgal reporter were carried out. […] However, the WHx-induced increase in mRNA abundance (˜3-5 fold) is much less then the HBx-induced increase in viral DNA synthesis (˜20-30 fold). […] The stimulation of Src signaling cascades by HBx must therefore promote WHV replication independent of the effect of WHx on viral transcription.

In series [4] the test system is WHV. Briefly: Northern blot of WHV viral mRNAs in Chang cells. In kind it is cell-based, Woodchuck Hepatitis B Virus. As to conditions: Chang cells co-transfected with wtWHV. As for the experimental part:
Chang cells were washed twice with PBS and total RNA prepared according to the manufacturer's instructions (RNeasy mini kit; Qiagen). 15 μg total RNA per sample were resolved through a 1.2% formaldehyde-agarose gel (Sambrook et al., 1989, supra), transferred to Duralon UV membrane, and pre-hybridized in Quick-Hyb solution (Stratagene) at 65° C. Hybridization to 32P-labeled full length WHV probe was carried out in the same solution at 65° C., washed as described above, and autoradiographed for 1 day.
It was next addressed whether the stimulation of viral replication by WHx was a result of transcriptional transactivation of WHV genes by WHx. Chang cells were transfected with wtWHV or pCWHV plasmids. Total cellular RNA was isolated 4 days post-transfection, equal amounts of RNA were resolved by electrophoresis through a 1.2% formaldehyde-agarose gel, and the viral mRNAs were visualized by Northern blot analysis using a ^32P-labeled probe corresponding to the entire WHV genome (FIG. 8, lanes 1 and 4). Steady-state levels of the genomic viral mRNAs was enhanced ˜3-5 fold in Chang cells expressing wtWHV as compared to PCWHV. […]

B1: Csk: Csk (carboxyl-terminal Src kinase), a specific physiologic inhibitor of Src kinase, expressed from a CMV promoter plasmid (protein, UniProt P41240 2-450, looked up)
Tyrosine-protein kinase CSK: SAIQAAWPSGTECIAKYNFHGTAEQDLPFCKGDVLTIVAVTKDPNWYKAKNKVGREGIIPANYVQKREGVKAGTKLSLMPWFHGKITREQAERLLYPPETGLFLVRESTNYPGDYTLCVSCDGKVEHYRIMYHASKLSIDEEVYFENLMQLVEHYTSDADGLCTRLIKPKVMEGTVAAQDEFYRSGWALNMKELKLLQTIGKGEFGDVMLGDYRGNKVAVKCIKNDATAQAFLAEASVMTQLRHSNLVQLLGVIVEEKGGLYIVTEYMAKGSLVDYLRSRGRSVLGGDCLLKFSLDVCEAMEYLEGNNFVHRDLAARNVLVSEDNVAKVSDFGLTKEASSTQDTGKLPVKWTAPEALREKKFSTKSDVWSFGILLWEIYSFGRVPYPRIPLKDVVPRVEKGYKMDAPDGCPPAVYEVMKNCWHLDAAMRPSFLQLREQLEHIKTHELHL
Regarding B1, the “effect on HBx induced activation of AP-1 dependent transcription” value in series [1] was “fully blocked”. For the same molecule, the “effect on downstream activation of MAP kinase by wtWHV” value in series [2] is reported as “efficiently inhibited”. Further, the “effect on expression of βgal protein from CMV-βgal (β-galactosidase activity)” value in series [3] is “did not significantly alter”. The “reduction of WHV RNA level” value in series [4] is 3-5 fold.
